Measurements taken from publication PMC11020753, “Contribution of amino acids in the active site of dipeptidyl peptidase 4 to the catalytic action of the enzyme” (PLOS ONE, 2024).
Substitutions are numbered along the chain they refer to. Names may count otherwise.

B1: wild type DP4 (Homo sapiens) (protein)
chain: ADSRKTYTLTDYLKNTYRLKLYSLRWISDHEYLYKQENNILVFNAEYGNSSVFLENSTFDEFGHSINDYSISPDGQFILLEYNYVKQWRHSYTASYDIYDLNKRQLITEERIPNNTQWVTWSPVGHKLAYVWNNDIYVKIEPNLPSYRITWTGKEDIIYNGITDWVYEEEVFSAYSALWWSPNGTFLAYAQFNDTEVPLIEYSFYSDESLQYPKTVRVPYPKAGAVNPTVKFFVVNTDSLSSVTNATSIQITAPASMLIGDHYLCDVTWATQERISLQWLRRIQNYSVMDICDYDESSGRWNCLVARQHIEMSTTGWVGRFRPSEPHFTLDGNSFYKIISNEEGYRHICYFQIDKKDCTFITKGTWEVIGIEALTSDYLYYISNEYKGMPGGRNLYKIQLSDYTKVTCLSCELNPERCQYYSVSFSKEAKYYQLRCSGPGLPLYTLHSSVNDKGLRVLEDNSALDKMLQNVQMPSKKLDFIILNETKFWYQMILPPHFDKSKKYPLLLDVYAGPCSQKADTVFRLNWATYLASTENIIVASFDGRGSGYQGDKIMHAINRRLGTFEVEDQIEAARQFSKMGFVDNKRIAIWGWSYGGYVTSMVLGSGSGVFKCGIAVAPVSRWEYYDSVYTERYMGLPTPEDNLDHYRNSTVMSRAENFKQVEYLLIHGTADDNVHFQQSAQISKALVDVGVDFQAMWYTDEDHGIASSTAHQHIYTHMSHFIKQCFSLP
B2: DP4 variant R125A (Homo sapiens; R125A) (protein)
chain: B1 chain with R89A

Substrate: CC(C)C[C@H](NC(=O)[C@@H]1CCCN1C(=O)[C@@H](N)C(C)C)C(=O)O
Experiment: purified protein, by the assay type
Details: T = 30 °C, 100 mM Tris-HCl, pH 7.6, substrate concentration 25 μM
[1] = other: wild type DP4, cleavage of diprotin B as substrate
[2] = other: R125A, cleavage of diprotin B as substrate

Protein | Km [1] | kcat [1] [s⁻¹] | kcat/Km [1] [M⁻¹ s⁻¹] | Km [2] | kcat [2] [s⁻¹] | kcat/Km [2] [M⁻¹ s⁻¹]
B1 | (7.2 ± 0.58) · 10^−6 M | 7 | 970000 | – | – | –
B2 | – | – | – | (3.7 ± 0.26) · 10^−4 M | 7.7 | 21000
